Data reported in paper PMC6356355.

Target: Toll-like receptor 9 (rat (endogenous in AR4-2J))

blockade of H4 (5 mgL^-1)-induced calcium oscillations in AR4-2J cells by simultaneous perfusion of TLR9 antagonist ODN2088 (5 uM): 88%
Substance: Recombinant histone H4 (from UniProt P62805 1-103) (natural protein)
